Laboratory results as given in paper PMC8040265, “A polysaccharide utilization locus from the gut bacterium Dysgonomonas mossii encodes functionally distinct carbohydrate esterases” (The Journal of Biological Chemistry, 2021).

Key:
Assay in all cases: model substrate hydrolysis, Michaelis-Menten fit
Format in all cases: biochemical, Dysgonomonas mossii
Conditions in all cases: 37 °C
[1] = substrate: CC(=O)Oc1ccc2c(C)cc(=O)oc2c1
Source text: (§1) model substrate hydrolysis, Michaelis-Menten fit on DmCE1B

[2] = substrate: COC(=O)/C=C/c1cc(OC)c(O)c(OC)c1
Source text: as §1

[3] = substrate: CC(=O)Oc1ccc2c(C)cc(=O)oc2c1; remark: listed apart in the source
Source text: model substrate hydrolysis, Michaelis-Menten fit on DmCE1B_ct

[4] = substrate: CC(=O)Oc1ccc2c(C)cc(=O)oc2c1; remark: listed apart in the source
Source text: (§2) model substrate hydrolysis, Michaelis-Menten fit on DmCE1B_nt

[5] = substrate: COC(=O)/C=C/c1cc(OC)c(O)c(OC)c1; remark: listed apart in the source
Source text: as §2

[6] = substrate: COC(=O)/C=C/c1ccc(O)c(OC)c1
Source text: as §2

[7] = substrate: COC(=O)/C=C/c1ccc(O)cc1
Source text: as §2

[8] = substrate: CC(=O)Oc1ccc([N+](=O)[O-])cc1
Source text: (§3) model substrate hydrolysis, Michaelis-Menten fit on DmCE6A

[9] = substrate: CC(=O)Oc1ccc2c(C)cc(=O)oc2c1; remark: listed apart in the source
Source text: as §3

[10] = substrate: CC(=O)Oc1ccc([N+](=O)[O-])cc1; remark: listed apart in the source
Source text: (§4) model substrate hydrolysis, Michaelis-Menten fit on DmCE1A

[11] = substrate: CC(=O)Oc1ccc2c(C)cc(=O)oc2c1; remark: listed apart in the source
Source text: as §4

[12] = substrate: COC(=O)/C=C/c1cc(OC)c(O)c(OC)c1; remark: listed apart in the source
Source text: as §4

B1: DmCE1B (Dysgonomonas mossii DSM 22836) (protein)
chain: ISQNYKSVPNGYDIPRTGISHGQIDTVTYYSKTVDTNRKALVYTPPGYSKNKQYPVLYLLHGIGGDEKEWFSHGQPQVILDNLYADKKIVPMIVVLPNGRAMKDDRAIGNIMEAPKVEAFATFEKDLLNDLIPFIQKTYPVLKNQENRALAGLSMGGGQSLNFGLGNLDIFAWVGGFSSAPNTKTPEVLVPNPDDAKKKLKLLWISCGDKDGLLSFSKRTHDYLAKNQVPHVYQVIPNGYHDFNIWKQNLYMFSQLLFKPVTADLIEQYSYIPEEAEVGISASTNIPGAQYPQILSGNRVLFRIKAPDAKRVQVDLGKKYDMVREEEGSWAITTDPIVEGFHYYSILIDGVAVCDPASRTFYGMSRMASGIEIPEEGVDYYNLKNVPHGQIRQIRYFSDVTKAWRRAFVYTPAGYDANTSQRYPVLYLQHGGGEDETGWPNQGKMDAIIDNLIAEGKAKPMIVVMDNGYAVDPSASSANSPQGLRGLFQNSALEKVFINEIIPLVDKEFRTIADRDHRAMAGLSMGGFQAFQIAMTNLDKFAYVGGFSGGGIIEQGGDFSKMYNNVWSDVDTFNKRVKLIYLSIGTAEPTNMYQTVNNFHKEFEKAGIKHVYYESPGTSHEWLTWRRSLNQFAELLFK
notes: full length, signal peptide removed; CE1-CBM48-CE1; dimer in solution; pET28a-TEVc, IMAC purified from E. coli BL21(DE3)
Km [1]: 370 ± 60 µM | kcat [1]: 870 ± 3 s⁻¹ | kcat/Km [1]: 2.3e+06 ± 400000 M⁻¹ s⁻¹ | Km [2]: 360 ± 100 µM | kcat [2]: 5 ± 0.83 s⁻¹ | kcat/Km [2]: 14000 ± 4500 M⁻¹ s⁻¹

B2: DmCE1B_ct (Dysgonomonas mossii DSM 22836) (protein)
chain: AEVGISASTNIPGAQYPQILSGNRVLFRIKAPDAKRVQVDLGKKYDMVREEEGSWAITTDPIVEGFHYYSILIDGVAVCDPASRTFYGMSRMASGIEIPEEGVDYYNLKNVPHGQIRQIRYFSDVTKAWRRAFVYTPAGYDANTSQRYPVLYLQHGGGEDETGWPNQGKMDAIIDNLIAEGKAKPMIVVMDNGYAVDPSASSANSPQGLRGLFQNSALEKVFINEIIPLVDKEFRTIADRDHRAMAGLSMGGFQAFQIAMTNLDKFAYVGGFSGGGIIEQGGDFSKMYNNVWSDVDTFNKRVKLIYLSIGTAEPTNMYQTVNNFHKEFEKAGIKHVYYESPGTSHEWLTWRRSLNQFAELLFK
notes: dimer; IMAC purified from E. coli BL21(DE3)
Km [3]: 420 ± 100 µM | kcat [3]: 11 ± 0.71 s⁻¹ | kcat/Km [3]: 26000 ± 6600 M⁻¹ s⁻¹

B3: DmCE1B_nt (Dysgonomonas mossii DSM 22836) (protein)
chain: ISQNYKSVPNGYDIPRTGISHGQIDTVTYYSKTVDTNRKALVYTPPGYSKNKQYPVLYLLHGIGGDEKEWFSHGQPQVILDNLYADKKIVPMIVVLPNGRAMKDDRAIGNIMEAPKVEAFATFEKDLLNDLIPFIQKTYPVLKNQENRALAGLSMGGGQSLNFGLGNLDIFAWVGGFSSAPNTKTPEVLVPNPDDAKKKLKLLWISCGDKDGLLSFSKRTHDYLAKNQVPHVYQVIPNGYHDFNIWKQNLYMFSQLLFKPVTADLIEQYSYIPEEAEVGISASTNIPGAQYPQILSGNRVLFRIKAPDAKRVQVDLGKKYDMVREEEGSWAITTDPIVEGFHYYSILIDGVAVCDPASRTFYGMSRMASGIEIPE
notes: N-terminal CE1 domain + CBM48 (CBM48 is residues 294-393), signal peptide removed; IMAC purified from E. coli BL21(DE3)
Km [4]: 300 ± 40 µM | kcat [4]: 630 ± 22 s⁻¹ | kcat/Km [4]: 2.1e+06 ± 300000 M⁻¹ s⁻¹ | Km [5]: 290 ± 70 µM | kcat [5]: 2.7 ± 0.34 s⁻¹ | kcat/Km [5]: 9200 ± 2400 M⁻¹ s⁻¹ | Km [6]: 160 ± 30 µM | kcat [6]: 1.8 ± 0.13 s⁻¹ | kcat/Km [6]: 11000 ± 2000 M⁻¹ s⁻¹ | Km [7]: 310 ± 90 µM | kcat [7]: 0.61 ± 0.1 s⁻¹ | kcat/Km [7]: 2000 ± 700 M⁻¹ s⁻¹

B4: DmCE6A (Dysgonomonas mossii DSM 22836) (protein)
chain: QDKFHVFLCFGQSNMEGHAKIEAQDTIDIDGRFMMLQTVDCPELGRFKGNWYKAIPPLARCHTGLSPADYFGRTMVANLPSDTKVGVINVAVGGCRIELFDKENFQSYVDQSPEWLKNMVNEYDGNPYVRLIEMAKLAQSQGGVIKGILLHQGESNNGETDWPEKVRKVYDNILKDLNFEPNSIPLLAGELLDEEQYGACANMNLIINTLPNVIPNAHVISSKGCEGVKDRLHFSAAGYRTLGSRYAEKMLQLYNENSLKK
notes: signal peptide removed; single CE6 domain; pET28a-TEVc, IMAC purified from E. coli BL21(DE3)
Km [8]: 180 ± 10 µM | kcat [8]: 59 ± 0.87 s⁻¹ | kcat/Km [8]: 320000 ± 20000 M⁻¹ s⁻¹ | Km [9]: 29 ± 3 µM

B5: DmCE1A (Dysgonomonas mossii DSM 22836) (protein)
chain: QDLEGSISSEYNIPEGQYPIVNKDLSATFRIQAPSAQSMQVDICGKKYPMTKDAAGIWEATTDPLVVGFHYYFLLIDGVSVVDPASQTFFGCGRMASGIEIPEPRAESAYYSYQKDIPHGQVRECYYFSKVEGKQRRCFLYTPAEYETNPTKRYPVLYLQHGMGEDETGWSRQGKMAFILDNQISEKKCVPMIVVMDYGNCGYIHGTKKGESQKEFGALFTPILINDIIPYIDSNFRTLSDRDNRAMAGLSWGGHQAFETTLNNIDKFSHIGAFSGALFFLKEDNLKKAYNGVFAQPNVFNKKVHTLFLGMGSEEGMGSKRISEFLKANGINNTYYESAGTHHEWLTWRRCLNQFLPLIFKQN
notes: signal peptide removed; N-terminal CBM48 + CE1 domain; pET28a-TEVc, IMAC purified from E. coli BL21(DE3)
Km [10]: 4400 ± 670 µM | kcat [10]: 1.03 ± 0.07 s⁻¹ | kcat/Km [10]: 230 ± 40 M⁻¹ s⁻¹ | Km [11]: 550 ± 60 µM | kcat [11]: 38.6 ± 1.26 s⁻¹ | kcat/Km [11]: 70000 ± 8000 M⁻¹ s⁻¹ | Km [12]: 180 ± 40 µM | kcat [12]: 0.13 ± 0.01 s⁻¹ | kcat/Km [12]: 700 ± 200 M⁻¹ s⁻¹
